Data reported in paper PMC11927663 (Science Advances, 2025).
Where no end group is shown, it is not given here.

Target: β-subunit of nerve growth factor (UniProt P01138 122-241)
Experiment: ELISA

Chain of β-subunit of nerve growth factor (P01138 122-241): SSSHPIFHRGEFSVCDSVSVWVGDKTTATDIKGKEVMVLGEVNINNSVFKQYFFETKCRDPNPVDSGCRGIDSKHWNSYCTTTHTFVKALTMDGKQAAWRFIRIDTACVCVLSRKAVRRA

B1: NK-displaying M13 phage (β-NGF-binding peptide NK displayed on M13 phage) (peptide)
peptide: NERALTLGEEGAVVK
modifications: also: displayed on M13 phage
  fold increase in ELISA absorbance: 4 fold
